Assay type in all cases: binding
For one assay, the target named is human serum albumin (Homo sapiens, UniProt P02768). In words: FFAu profile in artificial plasma (FFA mixed with fatty acid free human serum albumin). The conditions noted are these: artificial plasma: defined FFA mix with fatty acid free HSA in Measuring buffer.
Assay [1] can be described thus: Probe calibration by titration with FFA / FFA-BSA complexes: SA. The conditions noted are these: read-out: Kd for SA. As to the method: (§1) Calibration: Each probe is calibrated to the extent that the constants in Equation 2 are well determined for all FFAu to be included in profile calculations. Equation 2, which is the form of equation 1 for a single FFAu, relates the FFAu concentration to the equilibrium dissociation constant (Kd), fluorometric constants (Q and Rm) and the measured R values.
(§2) The calibration parameters are determined essentially as described in U.S. Pat. No. 7,601,510 which is incorporated herein by reference and (Huber et al Biochemistry (2006) 45:14263-14274) where the calibrated ADIFAB2 probe was used to generate FFA-BSA complexes with accurate and well buffered FFAu concentrations. To calibrate probes with substantially higher affinities than used in U.S. Pat. No. 7,601,510 and (Huber et al Biochemistry (2006) 45:14263-14274) a boot strap method is used in which a probe having higher affinities is calibrated with ADTFAB2. Such a probe is then used to generate FFA-BSA complexes with FFAu concentrations from 0.1 to 10 nM and these complexes are then used to calibrate other high affinity probes.
(§3) Probe calibration involves titrating the probes with either (i) un-buffered FFA or (ii) BSA-buffered FFA stocks. The un-buffered titrations involve measuring the R-value of a 1 μM probe solution as it is slowly titrated to saturation with small aliquots of a 100 to 250 μM FFA stock (Richieri G V et al. (1992) J Biol Chem 267: 23495-23501, Richieri G V et al. (1999) Mol Cell Biochem 192: 87-94). In this case, the total FFA concentration for each point in the titration is known and a nonlinear fit to the titration data yields the full set of fluorometric constants. In an un-buffered FFA titration, probe concentration is a key variable because the probe binds FFA, directly affecting the FFAu value.
(§4) Alternatively, in a BSA-buffered FFA calibration, the probe solution is titrated with a series of FFA-BSA complexes (600 μM BSA with [FFAu] ranging from 0.1 nM to 4 μM). The titration samples are FFA-BSA complex diluted 50-fold in Measuring Buffer. Probe is added to a concentration of 0.5 μM and the R-value is measured. Because BSA buffers FFAu, its concentration remains constant (i.e. known), even after the addition of probe. […] At least two calibrations with each of the up to 15 different FFA are performed for each probe.
(§5) All of the probes reveal substantial differences for different FFAu and in many cases these differences are related to the aqueous solubility of the FFA. For example, of the FFA in Table 3, SA is the least soluble and MA the most soluble. As discussed in (Richieri G V et al (2000) Biochemistry 39: 7197-7204) the tendency of natural proteins and FABPs, in particular, is for binding constants to be largest (smallest Kd) for the least soluble FFA and conversely for the most soluble FA. In two cases, ADIFAB2 and L11, Kd for SA is substantially the smallest and MA the largest and that pattern is more or less maintained for most of the other probes in Table3 with the exception of L83. In that case MA has the largest affinity while SA's more than 10 fold smaller. To some extent the other calibrations constants follow that behavior; Q is largest for the smallest Kd and Rmax is often largest, so that the probe response tends to be larger for FFA with the larger affinities. The ability to generate mutations that overcome the “natural thermodynamics” allows for probes that have a wide range of specificities and sensitivities than enable the determination of FFAu profiles.

Assay [2] is described as follows: Probe calibration by titration with FFA / FFA-BSA complexes: PA. The settings on record: equilibrium dissociation constant of probe for PA. Here is the method:
as §1, §2, §3, §4, §5

The nature of assay [3]: Probe calibration by titration with FFA / FFA-BSA complexes: POA. The settings on record: equilibrium dissociation constant of probe for POA. Here is the method: as §1, §2, §3, §4, §5
Assay [4] can be described thus: Probe calibration by titration with FFA / FFA-BSA complexes: MA. The conditions noted are these: equilibrium dissociation constant of probe for MA. As to the method:
as §1, §2, §3, §4, §5

Assay [5] is described as follows: Probe calibration by titration with FFA / FFA-BSA complexes: LNA. The conditions noted are these: equilibrium dissociation constant of probe for LNA. Here is the method: as §1, §2, §3, §4, §5
Assay [6] can be described thus: Probe response (increase in R) to 1 nM SA. The settings on record: 1 nM of SA, FIG. 1. The text has this: The set of probes chosen to determine the profile of a sample depends upon the nature of the sample, the types of FFA expected to be present in the sample and the determination that the chosen probes respond to the expected FFA. In addition, especially for the least abundant FFAu in a sample, the probe's sensitivity for a given FFAu must be sufficient to accurately quantitate the low concentration FFAu, for example less than 50 pM. Sensitivity is a function of the Kd, Q, Ro and Rm parameters. Differences in sensitivity among different FFAu probes are apparent in FIG. 1 where for example for ADIFAB2 (acrylodan labeled at lysine 27), 1 nM of SA produces a 20% increase in R while for L11P7B3V26C the increases is almost 500%. […] In the absence of absolutely specific and sensitive probes the determination of FFAu profiles requires an over determined system, which empirically requires about twice the number of probes as FFAu to obtain accurate profiles. The identity of the set of probes to achieve accurate FFAu profiles is not unique. […]
The response profile is the fluorescence change as evaluated as (R−Ro)/Ro (ΔR/Ro) for each FFAu added as a complex of the FFA and albumin so that the FFAu concentration is clamped or buffered at 1 nM for every FFAu for which a calibration has been performed. […]

Assay [7] in a line: Probe calibration by titration with FFA / FFA-BSA complexes: DHA. The settings on record: equilibrium dissociation constant of probe for DHA. Here is the method: as §1, §2, §3, §4, §5
Assay [8] can be described thus: Probe calibration by titration with FFA / FFA-BSA complexes: OA. The settings on record: equilibrium dissociation constant of probe for OA. Here is the method: as §1, §2, §3, §4, §5
Assay [9] in a line: Probe calibration by titration with FFA / FFA-BSA complexes: LA. The conditions noted are these: equilibrium dissociation constant of probe for LA. As to the method:
as §1, §2, §3, §4, §5

A short description of assay [10]: Probe calibration by titration with FFA / FFA-BSA complexes: AA. The settings on record: equilibrium dissociation constant of probe for AA. As to the method: as §1, §2, §3, §4, §5

The source of these data is US10705101B2, “Determination of the unbound free fatty acid profiles in biological and industrial specimens” (priority 2013, dated 2020).

Usually Kd stands for the free concentration of one partner at which half of the binding sites on the other are occupied at equilibrium, for simple one-to-one binding.

human serum albumin, sequence (P02768 25-609): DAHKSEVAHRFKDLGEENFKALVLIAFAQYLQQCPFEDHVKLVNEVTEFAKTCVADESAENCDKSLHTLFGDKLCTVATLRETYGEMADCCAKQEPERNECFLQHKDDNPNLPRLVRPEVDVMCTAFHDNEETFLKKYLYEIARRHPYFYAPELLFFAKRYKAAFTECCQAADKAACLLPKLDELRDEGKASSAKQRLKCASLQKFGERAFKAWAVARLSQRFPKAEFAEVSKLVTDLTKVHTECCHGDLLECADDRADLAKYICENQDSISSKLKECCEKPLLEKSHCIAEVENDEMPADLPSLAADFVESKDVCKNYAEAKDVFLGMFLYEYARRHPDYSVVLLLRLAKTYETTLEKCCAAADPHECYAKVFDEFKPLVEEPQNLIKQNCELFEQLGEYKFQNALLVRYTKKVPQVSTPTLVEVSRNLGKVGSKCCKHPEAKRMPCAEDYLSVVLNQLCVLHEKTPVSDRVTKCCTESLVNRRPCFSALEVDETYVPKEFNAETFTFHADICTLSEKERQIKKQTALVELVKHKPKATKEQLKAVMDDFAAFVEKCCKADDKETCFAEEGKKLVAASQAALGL
Excerpt for human serum albumin: To determine if the low unbound POA levels were due to an interaction with some component of the blood sample matrix an artificial plasma was generated by mixing well defined amounts of the FFA used in Table 4 to fatty acid free human serum albumin in Measuring buffer.

In the case of `CCCCCC/C=C\CCCCCCCC(=O)O` [POA, palmitoleate], at human serum albumin, the “% FFAu” value stood at 16.9%.

B1: L11P7 B3 V26C: acrylodan-labeled mutant FABP probe: M21F, V26C, L72A, L78V, L102V (protein, UniProt P02693 2-132, looked up, variant M21F V26C L72A L78V L102V)
Fatty acid-binding protein, …: AFDGTWKVDRNENYEKFMEKFGINVCKRKLGAHDNLKLTITQEGNKFTVKESSNFRNIDVVFELGVDFAYSAADGTEVTGTWTMEGNKLVGKFKRVDNGKEVIAVREISGNELIQTYTYEGVEAKRIFKKE
modifications: acrylodan label
notes: acrylodan-labeled mutant FABP probe: M21F, V26C, L72A, L78V, L102V
Take B1: the Kd in [1] was determined as 0.25 nM; in assay [2], 1.1 nM; in assay [3], 11.1 nM; in assay [4] it was 18.8 nM; in assay [5] it was 11.2 nM; in [7] it was 7.5 nM. The results for the equilibrium dissociation constant (Kd) in assay [8], in [9] and in assay [10] were 1 nM, 3.9 nM and 6.1 nM, respectively. Besides, the “increase in R” value in assay [6] is approximately 500%.
